Kd data for 28 molecules are collected here from article PMC10786891, “Massively parallel profiling of RNA-targeting CRISPR-Cas13d”.

Sequences and labels used below:
T1: EsCas13d, nuclease-dead (Eubacterium siraeum, UniProt B0MS50, R295A;H300A;R849A;H854A)
T1 sequence: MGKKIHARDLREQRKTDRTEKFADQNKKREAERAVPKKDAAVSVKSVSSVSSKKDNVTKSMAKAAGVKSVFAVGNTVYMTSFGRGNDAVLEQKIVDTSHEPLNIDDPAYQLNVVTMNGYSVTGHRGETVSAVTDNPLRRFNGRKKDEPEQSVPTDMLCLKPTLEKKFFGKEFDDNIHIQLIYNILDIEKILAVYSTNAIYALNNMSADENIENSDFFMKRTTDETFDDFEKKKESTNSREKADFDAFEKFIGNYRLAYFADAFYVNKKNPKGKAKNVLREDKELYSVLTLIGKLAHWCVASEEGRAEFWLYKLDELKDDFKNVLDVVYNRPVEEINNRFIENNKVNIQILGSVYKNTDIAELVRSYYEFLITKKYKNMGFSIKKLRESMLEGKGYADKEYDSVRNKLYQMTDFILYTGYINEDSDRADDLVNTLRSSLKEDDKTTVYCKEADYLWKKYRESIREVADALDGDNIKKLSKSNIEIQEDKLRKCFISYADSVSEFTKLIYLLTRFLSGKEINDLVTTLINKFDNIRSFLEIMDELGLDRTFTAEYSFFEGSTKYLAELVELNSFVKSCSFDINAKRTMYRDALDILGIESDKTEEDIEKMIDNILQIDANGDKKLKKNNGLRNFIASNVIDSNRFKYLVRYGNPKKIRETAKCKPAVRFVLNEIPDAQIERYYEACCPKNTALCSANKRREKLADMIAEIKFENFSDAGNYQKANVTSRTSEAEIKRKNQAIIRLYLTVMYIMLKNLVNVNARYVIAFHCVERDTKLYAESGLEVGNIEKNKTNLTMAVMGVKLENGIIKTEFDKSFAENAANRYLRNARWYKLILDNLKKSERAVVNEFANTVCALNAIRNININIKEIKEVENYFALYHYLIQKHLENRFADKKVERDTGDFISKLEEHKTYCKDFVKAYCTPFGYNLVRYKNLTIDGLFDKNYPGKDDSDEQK

B1: target 1 insU 3' of 20,insC 3' of 5 (mixed)
RNA 1: CACCCGUGCAAAAAUGCAGGGGUCUAAAACUGAGCGGAUAACCUCUCUAUGG
RNA 2: GGGAAUGGAUCCACAUCUACGAAUUCGUACCAUUAGAGAGGUUAUCCGCCUCACCGAGAUCGGAAGAGCACACGU
B2: target 1 insA 3' of 22,insG 3' of 21 (mixed)
RNA 1: B1 RNA 1
RNA 2: GGGAAUGGAUCCACAUCUACGAAUUCGUACACGAUAGAGAGGUUAUCCGCUCACCGAGAUCGGAAGAGCACACGU
B3: target 1 insA 3' of 17,insA 3' of 7 (mixed)
RNA 1: B1 RNA 1
RNA 2: B1 RNA 2 with U34A, A35G, G36A, C47A, G48C, C49G
B4: target 1 insG 3' of 18,insC 3' of 3 (mixed)
RNA 1: B1 RNA 1
RNA 2: B1 RNA 2 with U34A, A35G, C50U, U51C
B5: target 1 C4A,A14U (mixed)
RNA 1: B1 RNA 1
RNA 2: GGGAAUGGAUCCACAUCUACGAAUUCGUACCAUAGAGUGGUUAUCCGAUCACCGAGAUCGGAAGAGCACACGU
B6: target 1 G5U,G15C (mixed)
RNA 1: B1 RNA 1
RNA 2: B5 RNA 2 with G37C, U38A, G47U, A48C
B7: target 1 A9U,G12C (mixed)
RNA 1: B1 RNA 1
RNA 2: B5 RNA 2 with U38A, G40C, A43U, A48C
B8: target 1 insC 3' of 3,insU 3' of 2 (mixed)
RNA 1: B1 RNA 1
RNA 2: GGGAAUGGAUCCACAUCUACGAAUUCGUACCAUAGAGAGGUUAUCCGCUCCUACCGAGAUCGGAAGAGCACACGU
B9: target 1 insG 3' of 16,insC 3' of 10 (mixed)
RNA 1: B1 RNA 1
RNA 2: B2 RNA 2 with A31C, C32A, G33U, U35G, A38G, G39A, A40G, G42U, U44C
B10: target 1 insC 3' of 18,insA 3' of 12 (mixed)
RNA 1: B1 RNA 1
RNA 2: B1 RNA 2 with U34A, A35C, U42A, A44U, U45A, C46U, G48C, C49G
B11: target 1 insA 3' of 19,insG 3' of 1 (mixed)
RNA 1: B1 RNA 1
RNA 2: B1 RNA 2 with U34A, C50U, U51C, C52A, A53G
B12: target 1 insU 3' of 18,insG 3' of 10 (mixed)
RNA 1: B1 RNA 1
RNA 2: B1 RNA 2 with U34A, A35U, A44G, U45A, C46U, G48C, C49G
B13: target 1 insA 3' of 21,insU 3' of 21 (mixed)
RNA 1: B1 RNA 1
RNA 2: B2 RNA 2 with A31C, C32A, G33U
B14: target 1 del13,del15 (mixed)
RNA 1: B1 RNA 1
RNA 2: GGGAAUGGAUCCACAUCUACGAAUUCGUACCAUAGAAGUUAUCCGCUCACCGAGAUCGGAAGAGCACACGU
B15: target 1 insC 3' of 14,insA 3' of 6 (mixed)
RNA 1: B1 RNA 1
RNA 2: B1 RNA 2 with U34A, A35G, G36A, A37G, G38A, A39C, G48A, C49G
B16: target 1 A9U,C21A (mixed)
RNA 1: B1 RNA 1
RNA 2: B5 RNA 2 with C31A, U38A, A43U, A48C
B17: target 1 C7U,A9C (mixed)
RNA 1: B1 RNA 1
RNA 2: B5 RNA 2 with U38A, A43C, C45U, A48C
B18: target 1 insC 3' of 20,insA 3' of 8 (mixed)
RNA 1: B1 RNA 1
RNA 2: B1 RNA 2 with U33C, C46A, G48C, C49G
B19: target 1 del1,del5 (mixed)
RNA 1: B1 RNA 1
RNA 2: GGGAAUGGAUCCACAUCUACGAAUUCGUACCAUAGAGAGGUUAUCCCUCCCGAGAUCGGAAGAGCACACGU
B20: target 1 insA 3' of 19,insA 3' of 2 (mixed)
RNA 1: B1 RNA 1
RNA 2: B1 RNA 2 with U34A, C50U, U51C, C52A
B21: target 1 U8G,A18U (mixed)
RNA 1: B1 RNA 1
RNA 2: B5 RNA 2 with A34U, U38A, U44G, A48C
B22: target 1 insA 3' of 11,insU 3' of 9 (mixed)
RNA 1: B1 RNA 1
RNA 2: B2 RNA 2 with A31C, C32A, G33U, U35G, A40G, G41U, G42A, U44A, A45U
B23: target 1 C4U,G5A (mixed)
RNA 1: B1 RNA 1
RNA 2: B5 RNA 2 with U38A, G47A, A48U
B24: target 1 insA 3' of 19,insC 3' of 1 (mixed)
RNA 1: B1 RNA 1
RNA 2: B1 RNA 2 with U34A, C50U, U51C, C52A, A53C
B25: target 1 insA 3' of 19,insU 3' of 1 (mixed)
RNA 1: B1 RNA 1
RNA 2: B1 RNA 2 with U34A, C50U, U51C, C52A, A53U
B26: target 1 A16U,G17C (mixed)
RNA 1: B1 RNA 1
RNA 2: B5 RNA 2 with G35C, A36U, U38A, A48C
B27: target 1 insU 3' of 9,insU 3' of 7 (mixed)
RNA 1: B1 RNA 1
RNA 2: B8 RNA 2 with C45U, G47U, U49G, C51U, U52C
B28: target 1 insC 3' of 13,insG 3' of 6 (mixed)
RNA 1: B1 RNA 1
RNA 2: B1 RNA 2 with U34A, A35G, G36A, A37G, G38A, A39G, G40C, C49G

Changes are numbered by the printed parent chain. Numbers in names are those of the source.

For this data set, the target named is T1, EsCas13d, nuclease-dead. In words: crRNA (strand 1, pre-loaded); Mg2+; 40 mM Tris-HCl pH 7.5, 150 mM NaCl, 6 mM MgCl2, 1 mM DTT, 0.1% Tween-20, 0.2 mg/ml BSA; 25 C; 10 min per concentration, then washed. Conditions: tags: His6-TwinStrep-SUMO cleaved; N-terminal SNAP kept (SNAP-Surface 488); label: 3' end held by stalled T7 RNA polymerase.
Usually Kd stands for a measure of binding affinity in units of concentration. In the case of B1, the Kd was 36 ± 10 nM.

B2 had a Kd of 43 ± 6 nM.

The molecule B3 registered a Kd of 10.4 ± 0.5 nM.

B4 returned a Kd of 80 ± 9 nM.

The molecule B5 yielded a Kd of approximately 60 nM.

As for B6, the Kd was 46 ± 9 nM.

B7 returned a Kd of approximately 46 nM.

In the case of B8, the Kd is 37 ± 5 nM.

In turn, B9 showed a Kd of 40 ± 9 nM.

Regarding B10, the Kd stood at 80 ± 22 nM.

As for B11, the Kd came out at 20 ± 1.3 nM.

B12 gave a Kd of 68 ± 22 nM.

B13 showed a Kd of 9.1 ± 0.5 nM. This Kd lies about 7.5-fold lower than the previous one.

With B14, binding was put at a Kd of 30 ± 5 nM.

In the case of B15, the Kd stood at 56 ± 12 nM.

Take B16: the affinity, expressed as Kd, was 35.8 ± 2.3 nM.

The molecule B17 returned a Kd of 8.9 ± 0.4 nM.

B18: the Kd was 9.6 ± 0.5 nM.

As to B19, the Kd was 20.4 ± 1.2 nM.

As to B20, the Kd came to 19.9 ± 2.1 nM.

For B21, the Kd was found to be 80 ± 19 nM.

As for B22, binding was characterised by a dissociation constant (Kd) of 27.8 ± 2.2 nM.

In turn, B23 gave a Kd of 14.2 ± 1.5 nM.

B24 had a Kd of 18.6 ± 2.4 nM.

B25 yielded a Kd of 20 ± 1.7 nM.

Molecule B26 registered a Kd of 87 ± 23 nM.

Molecule B27 yielded a Kd of 25.4 ± 1.3 nM.

B28: the Kd was determined as 14.6 ± 1.6 nM.
